# Reference: the supplement of paper PMC9170038
# Tested on: MS2 coat protein
# Assay: apparent KD of MS2 coat protein; higher = weaker reporter binding
# Conditions: Eterna round: R107; input ligand: arginine 13.2 mM
# Procedure, shortened: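 Titration buffer: 100 mM Tris-HCl pH 7.5, 80 mM KCl, 4 mM MgCl2, without or with constant ligand. Designed RNA switches transcribed on-chip from Illumina sequencing clusters received SNAP-549-labelled MS2 coat protein in twofold steps from 0.7 or 1.5 nM to 3 µM. Apparent KD is the median per design of fits to normalised cluster binding curves.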
row,Sequence,apparent KD of MS2 coat protein
1,ACAUGAGGAUCACCCAUGUUCCUCGCCGAUACCAGUGAAGAAUUACGCCCUUGGCAGCGGAAAGAGUAUUUUGGAGAUGAGGUAC [6.Z],51.7 nM
2,CUUAUUUGCUGAAGGAGCGCCCGAGGAGAAGACAUGAGGAUCACCCAUGUAUAUAGUAUAUGGCAGGUAGGUCGCGGUGGGUAGG [Arginine B Same State; Euphoria Solution 3],28.1 nM
3,UGAUCCUACAGAGAUACCAGUGCCGCUAGAUAACUAUGCACAUGAGGAUCACCCAUGUAACACCCUUGGCAGCUCAACUAAAGGG [Same State Theophylline B GF20],42.5 nM
4,CCAAGCAUAAUAGAUACCAGUCGUAUACCUCCAACAUGAGGAUCACCCAUGUGCUCAGUUGACCCUUGGCAGCUAUGCCUAUAGA [theeternabot_sameState_MS2_Theo_B_1],37.4 nM
5,AAGGGUGGGUCUCUAAUCCGUUUGACGGAUACCAGCGAGAGAUAUCGCCCUUGGCAGCCGACGACAUGAGGAUCACCCAUGUAAA [#05 Exclusion-TheophyllineA],16.8 nM
6,GAGCUGAUGUAGAGUGGAUAUCCUUGAGAUACCAGUACAGAAAUGUACCCUUGGCAGCUCUUCUUUACAUGAGGAUCACCCAUGU [Ex Theophylline A 24],12.8 nM
7,AGACAUGUAAGAUAAUUGACUUUUACAGAUACCAGACUGUCUAAUGUCCCUUGGCAGCUGCAUUACAUGAGGAUCACCCAUGUUA [JR_ExcTheophyA_Sub011],15.9 nM
8,UUAUUUAACGGAAGGAGCGCGGAUAAUAAAGUGGGUAAACAUGAGGAUCACCCAUGUAAACCGCAGGUAGGUCGCCGAUAUUUAU [AstrosEXyARgB#6],43.9 nM
9,AUGUAUGUCAGAAGGAGCGUCUUUAACAUGAGGAUCACCCAUGUAACAUUGAAUUCGAUGAGACAGGUAGGUCGCUGAAUAGUAA [SS-ArgB25],29.7 nM
10,CUGACGAGCUUUUUGUCAGGUUGUGUAGAUACCAGUUCUCUGGUGAACCCUUGGCAGCUAACAACAUGAGGAUCACCCAUGUGAU [theeternabot_exclusion_MS2_Theo_A_33],38.5 nM
11,CACGAAAGAUCGGCCGCCACUCAUGUUUCUUACAUGAGGAUCACCCAUGUAUUUUCUUUCUUUUAGAGGACCGGGAUUGAGCGUG [SSTB #1],117 nM
12,UUACGAGGCUAUCCACUUUGAUUUUGUGAUACCAGAAUAAUUUUAUUCCCUUGGCAGCAUGACAUGAGGAUCACCCAUGUGUCUU [SSTheo A #4],34.3 nM
13,UUAAUCAAAUUAGAAAACUAAUUUGCAGAAGGAGCGUGAUAAAACACAGGUAGGUCGCUGAAGGGAACAUGAGGAUCACCCAUGU [AstrosSSArgA#11],26.7 nM
14,UUUUAGCAUCGAAGGAGCGCUGGUAGGUGACACAUGAGGAUCACCCAUGUGCUCCUUACCGAGCAGGUAGGUCGCGAUGCUAUUU [SSAB NP+V+V2 #9],20 nM
15,GAGUAAACUACGGCCGCCACUCAAGGAGAUCAAUAGAUCAUCGACAUGAGGAUCACCCAUGUAAAGAGGACCGGGUAGAUCCUUA [Same State Typrtophan B GF1],97.8 nM
16,GAGCUCGUGGACUGGCGUGCUCCGCUCCGUCGAGGACCGGUACGGCCGCCACUCGACAUGAGGAUCACCCAUGUGUGAGCUCGCG [#1 Exclusion - Tryptophan A Attempt #20 (HarryS)],35.3 nM

# Same assay, conditions: Eterna round: R107; input ligand: none
row,Sequence,apparent KD of MS2 coat protein
1,CUUAUUUGCUGAAGGAGCGCCCGAGGAGAAGACAUGAGGAUCACCCAUGUAUAUAGUAUAUGGCAGGUAGGUCGCGGUGGGUAGG [Arginine B Same State; Euphoria Solution 3],30 nM
2,AAGGGUGGGUCUCUAAUCCGUUUGACGGAUACCAGCGAGAGAUAUCGCCCUUGGCAGCCGACGACAUGAGGAUCACCCAUGUAAA [#05 Exclusion-TheophyllineA],18.7 nM
3,UUAUUUAACGGAAGGAGCGCGGAUAAUAAAGUGGGUAAACAUGAGGAUCACCCAUGUAAACCGCAGGUAGGUCGCCGAUAUUUAU [AstrosEXyARgB#6],56.5 nM
4,AUGUAUGUCAGAAGGAGCGUCUUUAACAUGAGGAUCACCCAUGUAACAUUGAAUUCGAUGAGACAGGUAGGUCGCUGAAUAGUAA [SS-ArgB25],35 nM
5,UUAAUCAAAUUAGAAAACUAAUUUGCAGAAGGAGCGUGAUAAAACACAGGUAGGUCGCUGAAGGGAACAUGAGGAUCACCCAUGU [AstrosSSArgA#11],26 nM
6,UUUUAGCAUCGAAGGAGCGCUGGUAGGUGACACAUGAGGAUCACCCAUGUGCUCCUUACCGAGCAGGUAGGUCGCGAUGCUAUUU [SSAB NP+V+V2 #9],23.7 nM
7,GAGUAAACUACGGCCGCCACUCAAGGAGAUCAAUAGAUCAUCGACAUGAGGAUCACCCAUGUAAAGAGGACCGGGUAGAUCCUUA [Same State Typrtophan B GF1],214 nM

# Same assay, conditions: Eterna round: R107; input ligand: theophylline 20 uM
row,Sequence,apparent KD of MS2 coat protein
1,ACAUGAGGAUCACCCAUGUUCCUCGCCGAUACCAGUGAAGAAUUACGCCCUUGGCAGCGGAAAGAGUAUUUUGGAGAUGAGGUAC [6.Z],127 nM
2,CUUAUUUGCUGAAGGAGCGCCCGAGGAGAAGACAUGAGGAUCACCCAUGUAUAUAGUAUAUGGCAGGUAGGUCGCGGUGGGUAGG [Arginine B Same State; Euphoria Solution 3],65 nM
3,UGAUCCUACAGAGAUACCAGUGCCGCUAGAUAACUAUGCACAUGAGGAUCACCCAUGUAACACCCUUGGCAGCUCAACUAAAGGG [Same State Theophylline B GF20],127 nM
4,CCAAGCAUAAUAGAUACCAGUCGUAUACCUCCAACAUGAGGAUCACCCAUGUGCUCAGUUGACCCUUGGCAGCUAUGCCUAUAGA [theeternabot_sameState_MS2_Theo_B_1],53.3 nM
5,AAGGGUGGGUCUCUAAUCCGUUUGACGGAUACCAGCGAGAGAUAUCGCCCUUGGCAGCCGACGACAUGAGGAUCACCCAUGUAAA [#05 Exclusion-TheophyllineA],22.5 nM
6,GAGCUGAUGUAGAGUGGAUAUCCUUGAGAUACCAGUACAGAAAUGUACCCUUGGCAGCUCUUCUUUACAUGAGGAUCACCCAUGU [Ex Theophylline A 24],14.3 nM
7,AGACAUGUAAGAUAAUUGACUUUUACAGAUACCAGACUGUCUAAUGUCCCUUGGCAGCUGCAUUACAUGAGGAUCACCCAUGUUA [JR_ExcTheophyA_Sub011],20.3 nM
8,UUAUUUAACGGAAGGAGCGCGGAUAAUAAAGUGGGUAAACAUGAGGAUCACCCAUGUAAACCGCAGGUAGGUCGCCGAUAUUUAU [AstrosEXyARgB#6],77.6 nM
9,AUGUAUGUCAGAAGGAGCGUCUUUAACAUGAGGAUCACCCAUGUAACAUUGAAUUCGAUGAGACAGGUAGGUCGCUGAAUAGUAA [SS-ArgB25],66 nM
10,CUGACGAGCUUUUUGUCAGGUUGUGUAGAUACCAGUUCUCUGGUGAACCCUUGGCAGCUAACAACAUGAGGAUCACCCAUGUGAU [theeternabot_exclusion_MS2_Theo_A_33],96.5 nM
11,CACGAAAGAUCGGCCGCCACUCAUGUUUCUUACAUGAGGAUCACCCAUGUAUUUUCUUUCUUUUAGAGGACCGGGAUUGAGCGUG [SSTB #1],197 nM
12,UUACGAGGCUAUCCACUUUGAUUUUGUGAUACCAGAAUAAUUUUAUUCCCUUGGCAGCAUGACAUGAGGAUCACCCAUGUGUCUU [SSTheo A #4],47.4 nM
13,UUAAUCAAAUUAGAAAACUAAUUUGCAGAAGGAGCGUGAUAAAACACAGGUAGGUCGCUGAAGGGAACAUGAGGAUCACCCAUGU [AstrosSSArgA#11],35.7 nM
14,UUUUAGCAUCGAAGGAGCGCUGGUAGGUGACACAUGAGGAUCACCCAUGUGCUCCUUACCGAGCAGGUAGGUCGCGAUGCUAUUU [SSAB NP+V+V2 #9],35.4 nM
15,GAGUAAACUACGGCCGCCACUCAAGGAGAUCAAUAGAUCAUCGACAUGAGGAUCACCCAUGUAAAGAGGACCGGGUAGAUCCUUA [Same State Typrtophan B GF1],98.9 nM
16,GAGCUCGUGGACUGGCGUGCUCCGCUCCGUCGAGGACCGGUACGGCCGCCACUCGACAUGAGGAUCACCCAUGUGUGAGCUCGCG [#1 Exclusion - Tryptophan A Attempt #20 (HarryS)],193 nM

# Same assay, conditions: Eterna round: R107; input ligand: theophylline 2 mM
row,Sequence,apparent KD of MS2 coat protein
1,CUUAUUUGCUGAAGGAGCGCCCGAGGAGAAGACAUGAGGAUCACCCAUGUAUAUAGUAUAUGGCAGGUAGGUCGCGGUGGGUAGG [Arginine B Same State; Euphoria Solution 3],31.2 nM
2,AAGGGUGGGUCUCUAAUCCGUUUGACGGAUACCAGCGAGAGAUAUCGCCCUUGGCAGCCGACGACAUGAGGAUCACCCAUGUAAA [#05 Exclusion-TheophyllineA],34.8 nM
3,UUAUUUAACGGAAGGAGCGCGGAUAAUAAAGUGGGUAAACAUGAGGAUCACCCAUGUAAACCGCAGGUAGGUCGCCGAUAUUUAU [AstrosEXyARgB#6],72.9 nM
4,AUGUAUGUCAGAAGGAGCGUCUUUAACAUGAGGAUCACCCAUGUAACAUUGAAUUCGAUGAGACAGGUAGGUCGCUGAAUAGUAA [SS-ArgB25],18.8 nM
5,CACGAAAGAUCGGCCGCCACUCAUGUUUCUUACAUGAGGAUCACCCAUGUAUUUUCUUUCUUUUAGAGGACCGGGAUUGAGCGUG [SSTB #1],199 nM
6,UUAAUCAAAUUAGAAAACUAAUUUGCAGAAGGAGCGUGAUAAAACACAGGUAGGUCGCUGAAGGGAACAUGAGGAUCACCCAUGU [AstrosSSArgA#11],29.5 nM
7,UUUUAGCAUCGAAGGAGCGCUGGUAGGUGACACAUGAGGAUCACCCAUGUGCUCCUUACCGAGCAGGUAGGUCGCGAUGCUAUUU [SSAB NP+V+V2 #9],29.4 nM
8,GAGUAAACUACGGCCGCCACUCAAGGAGAUCAAUAGAUCAUCGACAUGAGGAUCACCCAUGUAAAGAGGACCGGGUAGAUCCUUA [Same State Typrtophan B GF1],362 nM
9,GAGCUCGUGGACUGGCGUGCUCCGCUCCGUCGAGGACCGGUACGGCCGCCACUCGACAUGAGGAUCACCCAUGUGUGAGCUCGCG [#1 Exclusion - Tryptophan A Attempt #20 (HarryS)],134 nM

# Same assay, conditions: Eterna round: R107; input ligand: tryptophan 2.4 mM
row,Sequence,apparent KD of MS2 coat protein
1,ACAUGAGGAUCACCCAUGUUCCUCGCCGAUACCAGUGAAGAAUUACGCCCUUGGCAGCGGAAAGAGUAUUUUGGAGAUGAGGUAC [6.Z],66 nM
2,CUUAUUUGCUGAAGGAGCGCCCGAGGAGAAGACAUGAGGAUCACCCAUGUAUAUAGUAUAUGGCAGGUAGGUCGCGGUGGGUAGG [Arginine B Same State; Euphoria Solution 3],26.9 nM
3,UGAUCCUACAGAGAUACCAGUGCCGCUAGAUAACUAUGCACAUGAGGAUCACCCAUGUAACACCCUUGGCAGCUCAACUAAAGGG [Same State Theophylline B GF20],79.7 nM
4,CCAAGCAUAAUAGAUACCAGUCGUAUACCUCCAACAUGAGGAUCACCCAUGUGCUCAGUUGACCCUUGGCAGCUAUGCCUAUAGA [theeternabot_sameState_MS2_Theo_B_1],38.2 nM
5,AAGGGUGGGUCUCUAAUCCGUUUGACGGAUACCAGCGAGAGAUAUCGCCCUUGGCAGCCGACGACAUGAGGAUCACCCAUGUAAA [#05 Exclusion-TheophyllineA],15.8 nM
6,GAGCUGAUGUAGAGUGGAUAUCCUUGAGAUACCAGUACAGAAAUGUACCCUUGGCAGCUCUUCUUUACAUGAGGAUCACCCAUGU [Ex Theophylline A 24],12.5 nM
7,AGACAUGUAAGAUAAUUGACUUUUACAGAUACCAGACUGUCUAAUGUCCCUUGGCAGCUGCAUUACAUGAGGAUCACCCAUGUUA [JR_ExcTheophyA_Sub011],17.5 nM
8,UUAUUUAACGGAAGGAGCGCGGAUAAUAAAGUGGGUAAACAUGAGGAUCACCCAUGUAAACCGCAGGUAGGUCGCCGAUAUUUAU [AstrosEXyARgB#6],42.6 nM
9,AUGUAUGUCAGAAGGAGCGUCUUUAACAUGAGGAUCACCCAUGUAACAUUGAAUUCGAUGAGACAGGUAGGUCGCUGAAUAGUAA [SS-ArgB25],21.9 nM
10,CUGACGAGCUUUUUGUCAGGUUGUGUAGAUACCAGUUCUCUGGUGAACCCUUGGCAGCUAACAACAUGAGGAUCACCCAUGUGAU [theeternabot_exclusion_MS2_Theo_A_33],69.8 nM
11,UUACGAGGCUAUCCACUUUGAUUUUGUGAUACCAGAAUAAUUUUAUUCCCUUGGCAGCAUGACAUGAGGAUCACCCAUGUGUCUU [SSTheo A #4],42.5 nM
12,UUAAUCAAAUUAGAAAACUAAUUUGCAGAAGGAGCGUGAUAAAACACAGGUAGGUCGCUGAAGGGAACAUGAGGAUCACCCAUGU [AstrosSSArgA#11],25.7 nM
13,UUUUAGCAUCGAAGGAGCGCUGGUAGGUGACACAUGAGGAUCACCCAUGUGCUCCUUACCGAGCAGGUAGGUCGCGAUGCUAUUU [SSAB NP+V+V2 #9],25.1 nM
14,GAGUAAACUACGGCCGCCACUCAAGGAGAUCAAUAGAUCAUCGACAUGAGGAUCACCCAUGUAAAGAGGACCGGGUAGAUCCUUA [Same State Typrtophan B GF1],100 nM
